For 6 molecules, Kd and IC50 results are on record in paper PMC3009601, “Structural Basis for Apoptosis Inhibition by Epstein-Barr Virus BHRF1” (PLoS Pathogens, 2010).

By Kd is commonly meant the free concentration of one partner at which half of the binding sites on the other are occupied at equilibrium, for simple one-to-one binding. The term IC50 denotes the point on the concentration scale where inhibition reaches its midpoint.

Assay [1] deals with BHRF1ΔC31 (Epstein-Barr virus) (UniProt P03182). As to the kind of experiment: ITC; VP-ITC (MicroCal), recombinant BHRF1ΔC31 with BH3 domain peptides; Kd values are the means of 3 experiments ± SD. In general terms: In ITC the heat of successive injections is recorded.
Assay [2] has as its target T1, BHRF1 (recombinant; BHRF1ΔC31) (Epstein-barr virus strain ag876, UniProt P0C6Z1).
T1 construct: C-terminally truncated (last 31 residues removed, ΔC31), His-tagged, E. coli BL21(DE3) pLysS; the ABT-737 sentence says only 'recombinant BHRF1'
As to the kind of experiment: biosensor assay. It counts as binding.

Assay [3] addresses T2, BHRF1ΔC31 (Epstein-Barr virus, UniProt P03182).
T2 chain: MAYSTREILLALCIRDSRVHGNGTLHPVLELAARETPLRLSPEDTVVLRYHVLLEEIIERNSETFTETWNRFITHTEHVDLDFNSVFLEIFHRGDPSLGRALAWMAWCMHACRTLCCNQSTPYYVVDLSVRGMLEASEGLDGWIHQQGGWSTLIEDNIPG
Put plainly: ITC.

Assay [4] deals with T3, BHRF1ΔC31 (Epstein-Barr virus, UniProt P03182).
T3 construct: Epstein-Barr virus BHRF1 (viral Bcl-2 homolog) lacking the C-terminal 31 residues (ΔC31); electron density seen for residues 2-158 in the Bim complex; Cloned into pET DUET with BamHI and EcoRI; also called recombinant C-terminally truncated form of BHRF1; recombinant BHRF1; source: E. coli BL21 DE3 pLysS, purified (nickel Hi-Trap chelating column, Superdex 200 gel filtration)
T3 sequence: T2 chain
As to the kind of experiment: ITC; VP-ITC (MicroCal), recombinant BHRF1ΔC31 with BH3 domain peptides; Kd values are the means of 3 experiments ± SD. The conditions noted are these: both partners purified.

human Puma BH3 26-mer peptide: in assay [1], the Kd stood at 70 nM.
`CN(C)CC[C@H](CSc1ccccc1)Nc1ccc(S(=O)(=O)NC(=O)c2ccc(N3CCN(Cc4ccccc4-c4ccc(Cl)cc4)CC3)cc2)cc1[N+](=O)[O-]` [ABT-737]: the concentration for half-maximal inhibition (IC50) in assay [2] was greater than 20000 nM.
On to human Bak BH3 26-mer peptide, for which, in assay [1], the Kd is 150 nM.
On to human Bim BH3 26-mer peptide, for which the dissociation constant (Kd) in assay [1] was 18 nM.
For the molecule PQDASTKKLSECLKRIGDELDSNMELQR [human Bax BH3 28-mer peptide], the Kd in assay [3] is 1400 nM; in assay [4], greater than 1000 nM.
Consider SESQEDIIRNIARHLAQVGDSMDRSIPPGLVNGL [human Bid BH3 34-mer peptide], for which the Kd in assay [4] was found to be 110 nM.
